Experimental findings from paper PMC5827114, “A cryptic RNA-binding domain mediates Syncrip recognition and exosomal partitioning of miRNA targets” are described below.

Data set [1] deals with T1, Syncrip NeR1R2R3 (Homo sapiens, UniProt O60506 16-428).
T1 sequence: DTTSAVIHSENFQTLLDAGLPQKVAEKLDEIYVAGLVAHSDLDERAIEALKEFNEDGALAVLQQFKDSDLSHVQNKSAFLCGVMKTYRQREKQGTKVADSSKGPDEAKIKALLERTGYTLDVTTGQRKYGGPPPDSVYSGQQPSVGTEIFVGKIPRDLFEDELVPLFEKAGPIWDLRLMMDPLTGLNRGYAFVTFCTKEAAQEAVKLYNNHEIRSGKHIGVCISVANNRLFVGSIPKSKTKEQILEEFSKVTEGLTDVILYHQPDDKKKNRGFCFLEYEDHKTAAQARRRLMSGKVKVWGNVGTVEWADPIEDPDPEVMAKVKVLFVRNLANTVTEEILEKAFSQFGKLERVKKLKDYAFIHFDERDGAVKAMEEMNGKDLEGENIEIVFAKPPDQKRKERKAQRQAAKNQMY
Put plainly: BLI; BLI: 5 mM Tris-HCl pH 7.4, 50 mM NaCl, 1 mM TCEP, 0.5 mg/mL BSA, 30 C; NMR: 5 mM Tris-HCl pH 7.4, 50 mM NaCl, 0.5 mM TCEP. As to conditions: protein: recombinant; tags: His6-SUMO or His, removed by HRV 3C; label: 5'-biotin (BLI). In general terms: Biolayer interferometry detects binding as a change in optical thickness at a sensor tip.

The target of data set [2] is T2, Syncrip NURR domain (N) (Homo sapiens, UniProt O60506 16-109).
T2 sequence: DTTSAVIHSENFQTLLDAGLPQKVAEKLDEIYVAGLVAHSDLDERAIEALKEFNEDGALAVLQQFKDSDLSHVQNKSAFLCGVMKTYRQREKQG
The data set is described as above. The settings on record: protein: recombinant; tags: His6-SUMO or His, removed by HRV 3C; label: 5'-biotin.

Data set [3] concerns the target T2, Syncrip NURR domain (N). As to the kind of experiment: NMR; BLI: 5 mM Tris-HCl pH 7.4, 50 mM NaCl, 1 mM TCEP, 0.5 mg/mL BSA, 30 C; NMR: 5 mM Tris-HCl pH 7.4, 50 mM NaCl, 0.5 mM TCEP. The settings on record: protein: recombinant; tags: His6-SUMO or His, removed by HRV 3C.
Data set [4] addresses T3, Syncrip NeR1 (Homo sapiens, UniProt O60506 16-242).
T3 sequence: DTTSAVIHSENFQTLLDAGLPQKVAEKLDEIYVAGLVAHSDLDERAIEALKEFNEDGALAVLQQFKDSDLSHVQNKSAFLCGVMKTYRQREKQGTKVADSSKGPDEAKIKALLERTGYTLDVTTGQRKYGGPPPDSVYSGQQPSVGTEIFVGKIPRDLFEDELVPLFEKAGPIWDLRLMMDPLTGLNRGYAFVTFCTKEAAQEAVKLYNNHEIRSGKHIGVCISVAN
As to the kind of experiment: NMR; 50 uM protein, 1:1 and 1:2; BLI: 5 mM Tris-HCl pH 7.4, 50 mM NaCl, 1 mM TCEP, 0.5 mg/mL BSA, 30 C; NMR: 5 mM Tris-HCl pH 7.4, 50 mM NaCl, 0.5 mM TCEP. The settings on record: protein: recombinant; tags: His6-SUMO or His, removed by HRV 3C.

The target of data set [5] is T1, Syncrip NeR1R2R3. Put plainly: NMR; only NURR resonances shift; BLI: 5 mM Tris-HCl pH 7.4, 50 mM NaCl, 1 mM TCEP, 0.5 mg/mL BSA, 30 C; NMR: 5 mM Tris-HCl pH 7.4, 50 mM NaCl, 0.5 mM TCEP. The settings on record: protein: recombinant; tags: His6-SUMO or His, removed by HRV 3C.
In data set [6] the target is T4, Syncrip NeR1 R60A G97L (Homo sapiens, UniProt O60506 16-242, R60A;G97L).
T4 sequence: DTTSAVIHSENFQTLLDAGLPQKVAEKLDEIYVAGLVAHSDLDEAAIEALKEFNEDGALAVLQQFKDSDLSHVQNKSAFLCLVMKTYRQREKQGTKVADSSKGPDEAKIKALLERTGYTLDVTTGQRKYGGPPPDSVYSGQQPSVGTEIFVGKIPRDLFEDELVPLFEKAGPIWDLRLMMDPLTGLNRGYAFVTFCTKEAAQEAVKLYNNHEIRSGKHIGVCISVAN
As to the kind of experiment: NMR; 50 uM protein, 1:1 and 1:2; legend: binding eliminated (text: impaired); BLI: 5 mM Tris-HCl pH 7.4, 50 mM NaCl, 1 mM TCEP, 0.5 mg/mL BSA, 30 C; NMR: 5 mM Tris-HCl pH 7.4, 50 mM NaCl, 0.5 mM TCEP. As to conditions: protein: recombinant; tags: His6-SUMO or His, removed by HRV 3C.

In data set [7] the target is T1, Syncrip NeR1R2R3. Put plainly: BLI; BLI: 5 mM Tris-HCl pH 7.4, 50 mM NaCl, 1 mM TCEP, 0.5 mg/mL BSA, 30 C; NMR: 5 mM Tris-HCl pH 7.4, 50 mM NaCl, 0.5 mM TCEP. The settings on record: protein: recombinant; tags: His6-SUMO or His, removed by HRV 3C; label: 5'-biotin.

As to UCACUUUGUAGACCAGGCUGG (ssRNA) [miR-3470 full-length], the Kd in data set [1] was determined as 0.002 ± 0.0002 µM. On to GUAGACCAGGCUGG (ssRNA) [14mer miR-3470], for which the Kd in data set [2] is 29 ± 2 µM. AGGCU (ssRNA) [hEXO-motif RNA]: the binding result in data set [3] is recorded as “binds”; in data set [4] it was “binds”; in data set [5] it was “binds”; in data set [6] it was “no binding”. For UCACUUUGUAGACCAAGUGUU (ssRNA) [chimera miR-3470 (delta-hEXO mutant)], the “fold loss of affinity vs miR-3470 wild type” value in data set [7] was ~6 fold lower affinity than miR-3470 wild type.

The Kd is the free concentration of one partner at which half of the binding sites on the other are occupied at equilibrium, for simple one-to-one binding.
